Reference: PMC3089477
Where a chain is given by its changes, count along the chain named.

T1: BcnI H219N (UniProt Q8RNV8 1-238, H219N)
T1 sequence: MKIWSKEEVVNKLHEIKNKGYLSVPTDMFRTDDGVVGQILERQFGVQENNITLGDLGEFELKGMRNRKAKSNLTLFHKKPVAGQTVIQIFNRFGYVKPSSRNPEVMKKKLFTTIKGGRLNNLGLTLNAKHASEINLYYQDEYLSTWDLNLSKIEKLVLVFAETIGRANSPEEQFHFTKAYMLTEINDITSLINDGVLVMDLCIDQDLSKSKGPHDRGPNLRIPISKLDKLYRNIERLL

T2: BcnI H77N (UniProt Q8RNV8 1-238, H77N)
T2 sequence: T1 sequence with H77N, N219H

T3: BcnI H77A+H219N (UniProt Q8RNV8 1-238, H77A;H219N)
T3 sequence: T1 sequence with H77A

T4: BcnI H77N+H219N (UniProt Q8RNV8 1-238, H77N;H219N)
T4 sequence: T1 sequence with H77N

T5: BcnI wt (UniProt Q8RNV8 1-238)
T5 sequence: T1 sequence with N219H

T6: BcnI H219Q (UniProt Q8RNV8 1-238, H219Q)
T6 sequence: T1 sequence with N219Q

T7: BcnI H77A (UniProt Q8RNV8 1-238, H77A)
T7 sequence: T1 sequence with H77A, N219H

B1: CG oligoduplex (cognate) (dsDNA)
DNA 1: CGCACGACTTCCCGGAAGAGCACGC
DNA 2: GTTGCGTGCTCTTCCGGGAAGTCGTGCG
B2: TA oligoduplex (miscognate) (dsDNA)
DNA 1: CGCACGACTTCCTGGAAGAGCACGC
DNA 2: GTTGCGTGCTCTTCCAGGAAGTCGTGCG

How the values were obtained:
Assay in all cases: EMSA
BcnI H219N = molecular target: T1, BcnI H219N
BcnI H77N = molecular target: T2, BcnI H77N
BcnI H77A+H219N = molecular target: T3, BcnI H77A+H219N
BcnI H77N+H219N = molecular target: T4, BcnI H77N+H219N
BcnI wt = molecular target: T5, BcnI wt
BcnI H219Q = molecular target: T6, BcnI H219Q
BcnI H77A = molecular target: T7, BcnI H77A

Binder	Kd (BcnI H219N) [nM]	Kd (BcnI H77N) [nM]	Kd (BcnI H77A+H219N) [nM]	Kd (BcnI H77N+H219N) [nM]	Kd (BcnI wt) [nM]	Kd (BcnI H219Q) [nM]	Kd (BcnI H77A) [nM]
B1	0.4	0.3	0.5	20	0.5	0.6	0.25
B2							25
